Here are results for three molecules from paper PMC5594205 (Molecular Cell, 2017).

B2: recombinant human Rad51 (natural protein, UniProt Q06609 1-339, looked up)
chain: MAMQMQLEANADTSVEEESFGPQPISRLEQCGINANDVKKLEEAGFHTVEAVAYAPKKELINIKGISEAKADKILAEAAKLVPMGFTTATEFHQRRSEIIQITTGSKELDKLLQGGIETGSITEMFGEFRTGKTQICHTLAVTCQLPIDRGGGEGKAMYIDTEGTFRPERLLAVAERYGLSGSDVLDNVAYARAFNTDHQTQLLYQASAMMVESRYALLIVDSATALYRTDYSGRGELSARQMHLARFLRMLLRLADEFGVAVVITNQVVAQVDGAAMFAADPKKPIGGNIIAHASTTRLYLRKGRGETRICKIYDSPCLPEAEAMFAINADGVGDAKD

Holding throughout (experiment): pull-down
Experiment [1] addresses B2.
The target of experiment [2] is recombinant human Pol α-primase complex (full-length) (human, UniProt P09884 1-1462; Q14181 1-598; P49642 1-420; P49643 1-509).
The target of experiment [3] is B2. The source holds these as a separate data set.

Read-outs that look alike come from different tables or passages of the source.

Sequence of recombinant human Pol α-primase complex (full-length) (Q14181 whole entry, chain 2 of 3): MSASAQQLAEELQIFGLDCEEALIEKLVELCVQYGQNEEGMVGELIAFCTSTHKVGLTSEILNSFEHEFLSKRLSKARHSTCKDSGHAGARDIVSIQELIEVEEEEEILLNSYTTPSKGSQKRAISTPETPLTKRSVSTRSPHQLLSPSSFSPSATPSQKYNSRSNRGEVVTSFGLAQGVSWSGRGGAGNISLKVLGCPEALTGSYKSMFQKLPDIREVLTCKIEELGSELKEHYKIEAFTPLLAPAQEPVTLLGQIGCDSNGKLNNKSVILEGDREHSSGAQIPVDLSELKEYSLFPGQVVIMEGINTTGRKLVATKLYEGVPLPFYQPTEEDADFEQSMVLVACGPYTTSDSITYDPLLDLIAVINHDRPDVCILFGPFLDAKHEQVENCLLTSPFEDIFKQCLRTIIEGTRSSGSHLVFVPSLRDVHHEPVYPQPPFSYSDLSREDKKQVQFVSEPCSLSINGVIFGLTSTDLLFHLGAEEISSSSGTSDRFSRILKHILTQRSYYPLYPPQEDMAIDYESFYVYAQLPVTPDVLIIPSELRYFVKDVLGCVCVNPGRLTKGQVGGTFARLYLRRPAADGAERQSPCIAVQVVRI
Sequence of recombinant human Pol α-primase complex (full-length) (P49642 whole entry, chain 3 of 3): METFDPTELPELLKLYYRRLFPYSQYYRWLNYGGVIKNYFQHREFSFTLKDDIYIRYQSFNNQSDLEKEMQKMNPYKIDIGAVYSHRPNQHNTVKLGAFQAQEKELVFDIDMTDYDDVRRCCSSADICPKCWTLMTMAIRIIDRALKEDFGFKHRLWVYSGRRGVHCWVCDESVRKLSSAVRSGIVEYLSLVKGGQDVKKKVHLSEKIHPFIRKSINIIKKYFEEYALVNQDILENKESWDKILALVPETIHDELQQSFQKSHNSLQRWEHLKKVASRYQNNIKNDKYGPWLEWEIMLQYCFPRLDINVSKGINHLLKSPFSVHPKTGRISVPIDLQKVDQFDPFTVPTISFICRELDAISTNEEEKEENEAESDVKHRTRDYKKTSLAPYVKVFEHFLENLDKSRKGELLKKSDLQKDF
Sequence of recombinant human Pol α-primase complex (full-length) (P49643 whole entry, chain 4 of 3): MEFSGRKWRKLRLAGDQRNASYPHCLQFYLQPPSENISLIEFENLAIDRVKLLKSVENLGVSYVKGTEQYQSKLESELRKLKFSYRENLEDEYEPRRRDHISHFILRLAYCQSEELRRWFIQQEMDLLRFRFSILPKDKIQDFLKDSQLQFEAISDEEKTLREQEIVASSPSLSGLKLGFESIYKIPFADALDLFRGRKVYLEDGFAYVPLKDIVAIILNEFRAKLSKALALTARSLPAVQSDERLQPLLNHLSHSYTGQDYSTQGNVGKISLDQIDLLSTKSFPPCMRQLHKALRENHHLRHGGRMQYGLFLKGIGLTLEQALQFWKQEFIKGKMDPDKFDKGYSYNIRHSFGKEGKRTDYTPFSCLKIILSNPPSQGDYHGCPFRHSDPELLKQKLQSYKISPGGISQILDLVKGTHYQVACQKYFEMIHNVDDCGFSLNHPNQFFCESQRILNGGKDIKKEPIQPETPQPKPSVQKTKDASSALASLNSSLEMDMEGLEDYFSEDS

B1: His6-MBP-Polymerase α (1-109) (domain or fragment, human, UniProt P09884 1-109, looked up)
chain: MAPVHGDDSLSDSGSFVSSRARREKKSKKGRQEALERLKKAKAGEKYKYEVEDFTGVYEEVDEEQYSKLVQARQDDDWIVDDDGIGYVEDGREIFDDDLEDDALDADEK
Regarding B1, the binding result in experiment [1] is “binds”. For the molecule B2, in experiment [2], the binding result is recorded as “binds”. Turning to LLGFHTASGKKVKIAKESLDKVKNLFDE [Brca2 BRC4 peptide], the binding result in experiment [3] is reported as “binds”.
